This data set can be described thus: total protein half-life in vivo (active degradation + dilution); higher = more stable protein.
The mark [1] stands for this setting: E. coli NCM3722 delta-clpP delta-lon delta-hslV, growth: N-lim chemostat, doubling time 6 h.
Where [2] appears, read: E. coli NCM3722 delta-clpP, growth: N-lim chemostat, doubling time 6 h.
The mark [3] stands for this setting: E. coli NCM3722 delta-hslV, growth: N-lim chemostat, doubling time 6 h.
[4] abbreviates: E. coli NCM3722 delta-lon, growth: N-lim chemostat, doubling time 6 h.
[5] abbreviates: E. coli NCM3722 delta-smpB, growth: N-lim chemostat, doubling time 6 h.
Setting [6] is: wild type E. coli NCM3722, growth: C-lim chemostat, doubling time 3 h.
[7] abbreviates: wild type E. coli NCM3722, growth: C-lim chemostat, doubling time 6 h.
[8] abbreviates: wild type E. coli NCM3722, growth: C-lim chemostat, doubling time 12 h.
Where [9] appears, read: wild type E. coli NCM3722, growth: N-lim chemostat, doubling time 6 h.
[10] abbreviates: wild type E. coli NCM3722, growth: N-lim chemostat, doubling time 12 h.
[11] abbreviates: wild type E. coli NCM3722, growth: P-lim chemostat, doubling time 6 h.
[12] abbreviates: wild type E. coli NCM3722, growth: P-lim chemostat, doubling time 12 h.

± gives the standard deviation of the averaged measurements.

As for “MNQQDIEQVVKAVLLKMQSSDTPSAAVHEMGVFASLDDAVAAAKVAQQGLKSVAMRQLAIAAIREAGEKHARDLAELAVSETGMGRVEDKFAKNVAQARGTPGVECLSPQVLTGDNGLTLIENAPWGVVASVTPSTNPAATVINNAISLIAAGNSVIFAPHPAAKKVSQRAITLLNQAIVAAGGPENLLVTVANPDIETAQRLFKFPGIGLLVVTGGEAVVEAARKHTNKRLIAAGAGNPPVVVDETADLARAAQSIVKGASFDNNIICADEKVLIVVDSVADELMRLMEGQHAVKLTAEQAQQLQPVLLKNIDERGKGTVSRDWVGRDAGKIAAAIGLKVPQETRLLFVETTAEHPFAVTELMMPVLPVVRVANVADAIALAVKLEGGCHHTAAMHSRNIENMNQMANAIDTSIFVKNGPCIAGLGLGGEGWTTMTITTPTGEGVTSARTFVRLRRCVLVDAFRIV”, the “total protein half-life in vivo” value under setting [1] stood at 5.64 ± 1.3 h.
As for “MFRGATLVNLDSKGRLSVPTRYREQLLENAAGQMVCTIDIYHPCLLLYPLPEWEIIEQKLSRLSSMNPVERRVQRLLLGHASECQMDGAGRLLIAPVLRQHAGLTKEVMLVGQFNKFELWDETTWHQQVKEDIDAEQLATGDLSERLQDLSL”, the “total protein half-life in vivo” value stood at 7.01 ± 0.38 h under setting [1]; 6.48 ± 0.5 h under setting [2]; 6.33 ± 0.068 h under setting [3]; 6.98 ± 0.57 h under setting [4]; 5.69 ± 0.38 h under setting [5]; 3.22 ± 0.08 h under setting [6]. Moreover, the “total protein half-life in vivo” value is 6.14 ± 0.43 h under setting [7]; 12.19 ± 0.11 h under setting [8]; 5.98 ± 0.57 h under setting [9]; 12.9 ± 0.16 h under setting [10]; 6.8 ± 0.66 h under setting [11]; 14.04 ± 0.07 h under setting [12].
With “MSKAGKITAAISGAFLLLIVVAIILIATFDWNRLKPTINQKVSAELNRPFAIRGDLGVVWERQKQETGWRSWVPWPHVHAEDIILGNPPDIPEVTMVHLPRVEATLAPLALLTKTVWLPWIKLEKPDARLIRLSEKNNNWTFNLANDDNKDANAKPSAWSFRLDNILFDQGRIAIDDKVSKADLEIFVDPLGKPLPFSEVTGSKGKADKEKVGDYVFGLKAQGRYNGEPLTGTGKIGGMLALRGEGTPFPVQADFRSGNTRVAFDGVVNDPMKMGGVDLRLKFSGDSLGDLYELTGVLLPDTPPFETDGRLVAKIDTEKSSVFDYRGFNGRIGDSDIHGSLVYTTGKPRPKLEGDVESRQLRLADLGPLIGVDSGKGAEKSKRSEQKKGEKSVQPAGKVLPYDRFETDKWDVMDADVRFKGRRIEHGSSLPISDLSTHIILKNADLRLQPLKFGMAGGSIAANIHLEGDKKPMQGRADIQARRLKLKELMPDVELMQKTLGEMNGDAELRGSGNSVAALLGNSNGNLKLLMNDGLVSRNLMEIVGLNVGNYIVGAIFGDDEVRVNCAAANLNIANGVARPQIFAFDTENALINVTGTASFASEQLDLTIDPESKGIRIITLRSPLYVRGTFKNPQAGVKAGPLIARGAVAAALATLVTPAAALLALISPSEGEANQCRTILSQMKK”, the “total protein half-life in vivo” value reads like this: under setting [1], 6.24 ± 0.57 h; under setting [2], 5.9 ± 0.17 h; under setting [3], 6.13 ± 0.039 h; under setting [4], 6.42 ± 0.4 h; under setting [5], 5.438 ± 0.026 h; under setting [6], 3.09 ± 0.22 h. Also, the “total protein half-life in vivo” value was 5.72 ± 0.19 h under setting [7]; 10.9 ± 1.2 h under setting [8]; 5.57 ± 0.16 h under setting [9]; 10.9 ± 0.42 h under setting [10]; 5.49 ± 0.3 h under setting [11]; 9.41 ± 0.73 h under setting [12].
As to “MTQTYNADAIEVLTGLEPVRRRPGMYTDTTRPNHLGQEVIDNSVDEALAGHAKRVDVILHADQSLEVIDDGRGMPVDIHPEEGVPAVELILCRLHAGGKFSNKNYQFSGGLHGVGISVVNALSKRVEVNVRRDGQVYNIAFENGEKVQDLQVVGTCGKRNTGTSVHFWPDETFFDSPRFSVSRLTHVLKAKAVLCPGVEITFKDEINNTEQRWCYQDGLNDYLAEAVNGLPTLPEKPFIGNFAGDTEAVDWALLWLPEGGELLTESYVNLIPTMQGGTHVNGLRQGLLDAMREFCEYRNILPRGVKLSAEDIWDRCAYVLSVKMQDPQFAGQTKERLSSRQCAAFVSGVVKDAFILWLNQNVQAAELLAEMAISSAQRRMRAAKKVVRKKLTSGPALPGKLADCTAQDLNRTELFLVEGDSAGGSAKQARDREYQAIMPLKGKILNTWEVSSDEVLASQEVHDISVAIGIDPDSDDLSQLRYGKICILADADSDGLHIATLLCALFVKHFRALVKHGHVYVALPPLYRIDLGKEVYYALTEEEKEGVLEQLKRKKGKPNVQRFKGLGEMNPMQLRETTLDPNTRRLVQLTIDDEDDQRTDAMMDMLLAKKRSEDRRNWLQEKGDMAEIEV”, the “total protein half-life in vivo” value runs as follows: under setting [1], 5.85 ± 0.4 h; under setting [2], 6.09 ± 0.22 h; under setting [3], 5.29 ± 1.9 h; under setting [4], 4.41 ± 0.076 h; under setting [5], 3.56 ± 0.24 h; under setting [6], 2.68 ± 0.1 h. Also, the “total protein half-life in vivo” value under setting [7] was 4.78 ± 0.23 h; the “total protein half-life in vivo” value under setting [8] worked out at 7.42 ± 0.43 h; the “total protein half-life in vivo” value under setting [9] stood at 3.79 ± 0.16 h; the “total protein half-life in vivo” value under setting [10] stood at 5.867 ± 0.054 h; the “total protein half-life in vivo” value under setting [11] is 3.96 ± 0.39 h; the “total protein half-life in vivo” value under setting [12] was found to be 8.4 ± 0.31 h.
For the sequence “MARFVVLVIDSFGVGAMKDVTLVRPQDAGANTCGHILSQLPHLQLPTLETLGLINALGYAPGDMQPSDSATWGVAELQHEGGDTFMGHQEILGTRPLPPLRMPFRDVIDRVEQALVSAGWQVERRGDDLQFLWVNQAVAIGDNLEADLGQVYNITANLSVISFDDAIKIGRIVREQVQVGRVITFGGLLTDSQRILDAAESKEGRFIGINAPRSGAYDNGFQVVHMGYGVDEKVQVPQKLYEAGVPTVLVGKVADIVNNPYGVSWQNLVDSQRIMDITLNEFNTHPTAFICTNIQETDLAGHAEDVARYAERLQVVDRNLARLVEAMQPDDCLVVMADHGNDPTIGHSHHTREVVPVLVYQQGMIATQLGVRTTLSDVGATVCEFFRAPPPQNGRSFLSSLRFAGDTL”, the “total protein half-life in vivo” value under setting [1] was found to be 4.67 h.
With “MITRIPRSSFSANINNTAQTNEHQTLSELFYKELEDKFSGKELATPLLKSFSENCRQNGRHIFSNKDFVIKFSTSVLQADKKEITIINKNENTTLTQTIAPIFEKYLMEILPQRSDTLDKQELNLKSDRKEKEFPRIKLNGQCYFPGRPQNRIVCRHIAAQYINDIYQNVDYKPHQDDYSSAEKFLTHFNKKCKNQTLALVSSRPEGRCVAACGDFGLVMKAYFDKMESNGISVMAAILLVDNHALTVRLRIKNTTEGCTHYVVSVYDPNVTNDKIRIMSESKENIKHYSLMDFMNVDYSLLKWSNDHVINQSVAIIPALPKEQLLMLKGSVDEITPPLSPATMNLLMAIGQNHQLTQLMIQLQKMPELHRTEMLTAYNSINLPGLYLAINYGNADIVETIFNSLSETGYEGLLSKKNLMHILEAKDKNGFSGLFLAISRKDKNVVTSILNALPKLAATHHLDNEQVYKFLSAKNRTSSHVLYHVMANGDADMLKIVLNALPLLIRTCHLTKEQVLDLLKAKDFYGCPGLYLAMQNGHSDIVKVILEALPSLAQEINISASDIVDLLTAKSLARDTGLFMAMQRGHMNVINTIFNALPTLFNTFKFDKKNMKPLLLANNSNEYPGLFSAIQHKQQNVVETVYLALSDHARLFGFTAEDIMDFWQHKAPQKYSAFELAFEFGHRVIAELILNTLNKMAESFGFTDNPRYIAEKNYMEALLKKASPHTVR”, the “total protein half-life in vivo” value under setting [7] stood at 5.49 h.
Consider “MANPTVIKLQDGNVMPQLGLGVWQASNEEVITAIQKALEVGYRSIDTAAAYKNEEGVGKALKNASVNREELFITTKLWNDDHKRPREALLDSLKKLQLDYIDLYLMHWPVPAIDHYVEAWKGMIELQKEGLIKSIGVCNFQIHHLQRLIDETGVTPVINQIELHPLMQQRQLHAWNATHKIQTESWSPLAQGGKGVFDQKVIRDLADKYGKTPAQIVIRWHLDSGLVVIPKSVTPSRIAENFDVWDFRLDKDELGEIAKLDQGKRLGPDPDQFGG”, for which the “total protein half-life in vivo” value amounted to 5.16 ± 0.27 h under setting [1]; 5.3 ± 0.9 h under setting [2]; 5.36 ± 0.068 h under setting [3]; 5.7 ± 0.23 h under setting [4]; 5.17 ± 0.29 h under setting [5]; 3.7 ± 0.23 h under setting [6]. In addition, the “total protein half-life in vivo” value by setting is: under setting [7], 6.23 ± 0.55 h; under setting [8], 11.8 ± 1.7 h; under setting [9], 4.8 ± 0.42 h; under setting [10], 8.91 ± 0.27 h; under setting [11], 5.85 ± 0.2 h; under setting [12], 13.3 ± 2.8 h.
For “MWKRLLIVSAVSAAMSSMALAAPLTVGFSQVGSESGWRAAETNVAKSEAEKRGITLKIADGQQKQENQIKAVRSFVAQGVDAIFIAPVVATGWEPVLKEAKDAEIPVFLLDRSIDVKDKSLYMTTVTADNILEGKLIGDWLVKEVNGKPCNVVELQGTVGASVAIDRKKGFAEAIKNAPNIKIIRSQSGDFTRSKGKEVMESFIKAENNGKNICMVYAHNDDMVIGAIQAIKEAGLKPGKDILTGSIDGVPDIYKAMMDGEANASVELTPNMAGPAFDALEKYKKDGTMPEKLTLTKSTLYLPDTAKEELEKKKNMGY”, the “total protein half-life in vivo” value was 5.47 ± 0.2 h under setting [1]; 5.64 ± 0.063 h under setting [2]; 6.128 ± 0.015 h under setting [3]; 5.93 ± 0.48 h under setting [4]; 5.06 ± 0.13 h under setting [5]; 3.09 ± 0.11 h under setting [6]. Moreover, the “total protein half-life in vivo” value reads like this: under setting [7], 6.11 ± 0.068 h; under setting [8], 12 ± 1.7 h; under setting [9], 5.68 ± 1.1 h; under setting [10], 11.9 ± 1.6 h; under setting [11], 5.4 ± 0.41 h; under setting [12], 13.35 ± 0.018 h.
“MEKKHIYLFCSAGMSTSLLVSKMRAQAEKYEVPVIIEAFPETLAGEKGQNADVVLLGPQIAYMLPEIQRLLPNKPVEVIDSLLYGKVDGLGVLKAAVAAIKKAAAN”: the “total protein half-life in vivo” value under setting [1] amounted to 4.43 ± 0.066 h; the “total protein half-life in vivo” value under setting [2] came to 3.28 ± 0.13 h; the “total protein half-life in vivo” value under setting [3] is 2.92 ± 0.14 h; the “total protein half-life in vivo” value under setting [4] came out at 4.05 ± 0.47 h; the “total protein half-life in vivo” value under setting [5] worked out at 3.16 ± 0.091 h; the “total protein half-life in vivo” value under setting [6] was 2.72 ± 0.065 h. Also, the “total protein half-life in vivo” value runs as follows: under setting [7], 3.64 ± 0.58 h; under setting [8], 6 ± 0.41 h; under setting [9], 2.82 ± 0.2 h; under setting [10], 4.37 ± 1 h; under setting [11], 4.042 ± 0.031 h; under setting [12], 7.9 ± 0.83 h.
Take “MMKFKKCLLPVAMLASFTLAGCQSNADDHAADVYQTDQLNTKQETKTVNIISILPAKVAVDNSQNKRNAQAFGALIGAVAGGVIGHNVGSGSNSGTTAGAVGGGAVGAAAGSMVNDKTLVEGVSLTYKEGTKVYTSTQVGKECQFTTGLAVVITTTYNETRIQPNTKCPEKS”: the “total protein half-life in vivo” value is, setting by setting: under setting [5], 2.3 h; under setting [6], 1.87 h; under setting [9], 2.73 h.

Source of the values: the supplement of paper PMC11246515.
